Among the data in article PMC3169180 are critical nucleus size n* (nucleated growth polymerization model), order of the self-association reaction (initial rates) and percent monomer (3 μM OmpA325, 450 mM urea, 30 minutes) values, retold here.

In assay [1] the target is N-terminal barrel domain of OmpA (OmpA171, residues 1–171) (E. coli K12 MG1655). Nature of the assay: circular dichroism kinetics. A general note: Circular dichroism is widely used to follow secondary structure.
Assay [2] deals with T1, mature form of full-length OmpA (OmpA325) (E. coli K12 MG1655), P0A910.
T1 chain: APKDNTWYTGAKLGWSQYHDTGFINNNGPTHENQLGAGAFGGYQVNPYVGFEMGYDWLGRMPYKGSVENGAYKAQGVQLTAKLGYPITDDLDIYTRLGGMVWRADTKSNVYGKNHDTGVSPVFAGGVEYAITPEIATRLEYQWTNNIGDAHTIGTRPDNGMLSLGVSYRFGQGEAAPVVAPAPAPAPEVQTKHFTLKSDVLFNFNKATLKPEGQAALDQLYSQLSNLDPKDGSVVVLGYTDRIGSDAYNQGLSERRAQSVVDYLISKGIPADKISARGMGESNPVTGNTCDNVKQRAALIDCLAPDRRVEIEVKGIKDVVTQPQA
Nature of the assay: AUC. The conditions noted are these: remark: other sources report otherwise.

Regarding “N-terminal barrel domain of OmpA (OmpA171, residues 1–171) (domain or fragment)”, in assay [1], the critical nucleus size n* (nucleated growth polymerization model) worked out at 2.6 molecules and the order of the self-association reaction (initial rates) was determined as 3.2.

B1: mature form of full-length OmpA (OmpA325), P0A910 22-346 (natural protein)
chain: T1 chain
In assay [2], B1 had a percent monomer (3 μM OmpA325, 450 mM urea, 30 minutes) of 75%.
